Measured values reported in paper PMC6588349, “Conformational dynamics between transmembrane domains and allosteric modulation of a metabotropic glutamate receptor” (eLife, 2019).

Target: SNAP-mGluR3 (rat), P31422
Test: single-molecule pulldown (SiMPull) with subunit counting by photobleaching steps; surface receptors labelled with BG-LD555 on HEK 293T cells, lysed in 1.2% IGEPAL, diluted in 0.1% IGEPAL, immobilised by biotinylated anti-HA antibody on a PEG-passivated coverslip, TIRF imaging; SNAP labelling efficiency ~80%; background two-step bleaching ~5-10%
Conditions: remark: other sources report otherwise

B1: SNAP-mGluR3, P31422 23-879 (receptor)
chain: LGDHNFMRREIKIEGDLVLGGLFPINEKGTGTEECGRINEDRGIQRLEAMLFAIDEINKDNYLLPGVKLGVHILDTCSRDTYALEQSLEFVRASLTKVDEAEYMCPDGSYAIQENIPLLIAGVIGGSYSSVSIQVANLLRLFQIPQISYASTSAKLSDKSRYDYFARTVPPDFYQAKAMAEILRFFNWTYVSTVASEGDYGETGIEAFEQEARLRNICIATAEKVGRSNIRKSYDSVIRELLQKPNARVVVLFMRSDDSRELIAAANRVNASFTWVASDGWGAQESIVKGSEHVAYGAITLELASHPVRQFDRYFQSLNPYNNHRNPWFRDFWEQKFQCSLQNKRNHRQVCDKHLAIDSSNYEQESKIMFVVNAVYAMAHALHKMQRTLCPNTTKLCDAMKILDGKKLYKEYLLKINFTAPFNPNKGADSIVKFDTFGDGMGRYNVFNLQQTGGKYSYLKVGHWAETLSLDVDSIHWSRNSVPTSQCSDPCAPNEMKNMQPGDVCCWICIPCEPYEYLVDEFTCMDCGPGQWPTADLSGCYNLPEDYIKWEDAWAIGPVTIACLGFLCTCIVITVFIKHNNTPLVKASGRELCYILLFGVSLSYCMTFFFIAKPSPVICALRRLGLGTSFAICYSALLTKTNCIARIFDGVKNGAQRPKFISPSSQVFICLGLILVQIVMVSVWLILETPGTRRYTLPEKRETVILKCNVKDSSMLISLTYDVVLVILCTVYAFKTRKCPENFNEAKFIGFTMYTTCIIWLAFLPIFYVTSSDYRVQTTTMCISVSLSGFVVLGCLFAPKVHIVLFQPQKNVVTHRLHLNRFSVSGTATTYSQSSASTYVPTVCNGREVLDSTTSSL
modifications: here or on the partner: SNAP tag labelled with BG-LD555; SNAP tag labelled with BG-LD555
Which percent of spots bleaching in two steps does the source give for B1 here?
Its percent of spots bleaching in two steps is 48.9%.

What about the stoichiometry N of the same binder?
The stoichiometry N was 2.
